IntAct's records for PubMed 21370995

Target: kcru_mouse Ckmt1 (UniProt P30275)

“Leucine-rich repeat serine/threonine-protein kinase 2 (Homo sapiens), Q5S007 G2019S” was tested, and the “effect of a mutation on the interaction” value was “increasing interaction”.
